Laboratory results reported in patent US20250277030A1, “ANTI-NAPI2B ANTIBODIES AND METHODS OF USE” (Zymeworks BC Inc., priority 2022, published 2025).

What was measured:
[1] = Thermal stability by differential scanning calorimetry (DSC); type: physicochemical; details: 0.4 mg/mL in PBS, scan 20° C. to 100° C. at 60° C./hr
Method: The thermal stability of the humanized antibody variants was assessed by differential scanning calorimetry (DSC) as described below.
400 μL of purified samples primarily at concentrations of 0.4 mg/mL in PBS were used for DSC analysis with a VP-Capillary DSC (Malvern Panalytical Inc., Westborough, MA). At the start of each DSC run, 5 buffer blank injections were performed to stabilize the baseline, and a buffer injection was placed before each sample injection for referencing. Each sample was scanned from 20° C. to 100° C. at a 60° C./hr rate, with low feedback, 8 sec filter, 3 min pre-scan thermostat, and 70 psi nitrogen pressure. The resulting thermograms were referenced and analyzed using Origin 7 software (OriginLab Corporation, Northampton, MA) to determine melting temperature (Tm) as an indicator of thermal stability.

[2] = Capillary isoelectric focusing (cIEF); type: physicochemical; details: main isoform; 0.5 mg/mL
Method: (§1) The isoelectric point was measured by capillary isoelectric focusing (cIEF), the propensity for self-aggregation was measured by Affinity-capture self-interaction nanoparticle spectroscopy (AC-SINS) and non-specific binding was measured by NS-ELISA, as described below.
cIEF was carried out using Maurice C. (ProteinSimple®) system, System Suitability Kit and Method Development Kit. System suitability standard, fluorescence calibration standard, cartridge and samples were prepared according to vendor's recommendations. The capillary was automatically calibrated with a fluorescence standard preconditioned with Maurice cIEF System Suitability Kit to ensure the capillary was functioning properly. The antibody samples were diluted to a concentration of 0.5 mg/mL in a final volume of 40 μL in Gibco™ Distilled Water, and mixed Maurice cIEF Method Development Kit Samples. The samples were then vortexed, centrifuged and the supernatant pipetted into individual wells of a 96-well plate. All electropherograms were detected with UV absorbance at 280 nm. All data analyses were performed using vendor software Compass for iCE (ProteinSimple®).

ssDNA = experiment: NS-ELISA non-specific binding, ssDNA; details: mAb at 100 nM
Method: as §1
(§2) NS-ELISA was used to measure the propensity of the antibodies to bind to a range of biomolecules to emulate the undesirable non-specific interactions to biological matrices in vivo as described below.
(§3) NS-ELISA was carried out in Corning®96-well EIA/RIA Easy Wash™ Clear Flat Bottom Polystyrene High Bind Microplate coated overnight at 4° C. with 50 μL of Heparin (Sigma, H3149) diluted with 50 mM sodium carbonate pH 9.6 to a final concentration of 250 μg/mL. The plate was incubated for 2 days at room temperature, wells that were coated with heparin were not covered to allow air dry. […] Reactions were stopped after approximately 10 minutes by adding 100 μL of 1 M HCl to each well, and absorbance was read at 450 nm. Binding scores were calculated as the ratio of the ELISA signal of the antibody (antibody-treated) to the signal of a well containing buffer instead of the primary antibody (untreated). The cutoffs considered for each binding molecule (ssDNA, KLH, insulin, dsDNA and heparin) were internally calculated, based on the average of Zymeworks Inc. produced antibodies and antibodies benchmarks published in the literature.

Insulin = target: T1, Insulin (Homo sapiens, UniProt P01308); experiment: NS-ELISA non-specific binding, insulin; details: mAb at 100 nM
T1 construct: purchased Sigma-Aldrich 19278
T1 sequence (P01308 25-54 limits assumed): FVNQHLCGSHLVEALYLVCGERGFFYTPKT
T1 sequence (P01308 90-110 limits assumed): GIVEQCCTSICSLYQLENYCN
Method: as §1, §2, §3

dsDNA = experiment: NS-ELISA non-specific binding, dsDNA; details: mAb at 100 nM
Method: as §1, §2, §3

[3] = NS-ELISA non-specific binding, heparin; details: mAb at 100 nM
Method: as §1, §2, §3

[4] = target: T2, NaPi2b expressed on IGROV-1 cells (Homo sapiens, UniProt O95436); experiment: Cellular binding of bivalent antibodies to IGROV-1 cells by flow cytometry (Example 13); details: IGROV-1, 24 hours at 4° C., NB = no cellular binding
T2 construct: IGROV-1 cells express endogenous NaPi2b at a high level; endogenous in cells; host or cells: IGROV-1
T2 sequence (O95436 1-690): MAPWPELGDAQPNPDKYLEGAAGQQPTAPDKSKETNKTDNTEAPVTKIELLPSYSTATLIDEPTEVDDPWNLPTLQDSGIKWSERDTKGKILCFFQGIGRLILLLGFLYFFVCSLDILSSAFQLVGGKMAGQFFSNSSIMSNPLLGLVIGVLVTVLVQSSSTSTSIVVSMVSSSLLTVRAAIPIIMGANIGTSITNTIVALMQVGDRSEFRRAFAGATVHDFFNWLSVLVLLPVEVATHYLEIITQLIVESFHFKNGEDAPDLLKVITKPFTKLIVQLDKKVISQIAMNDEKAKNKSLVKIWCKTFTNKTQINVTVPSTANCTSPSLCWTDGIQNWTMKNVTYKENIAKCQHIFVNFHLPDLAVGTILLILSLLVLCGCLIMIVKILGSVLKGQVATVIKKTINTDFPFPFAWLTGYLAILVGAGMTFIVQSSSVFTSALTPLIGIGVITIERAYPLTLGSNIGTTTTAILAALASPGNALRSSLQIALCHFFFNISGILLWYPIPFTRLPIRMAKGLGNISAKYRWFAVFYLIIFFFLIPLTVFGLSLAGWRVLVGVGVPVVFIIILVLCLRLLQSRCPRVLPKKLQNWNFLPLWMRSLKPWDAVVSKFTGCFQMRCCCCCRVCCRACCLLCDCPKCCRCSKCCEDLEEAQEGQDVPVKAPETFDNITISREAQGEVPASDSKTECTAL
Method: IGROV-1 cells express endogenous NaPi2b at a high level.
Briefly, cells were seeded at 50,000 cells/well in conical-bottom 96-well plates and treated with test antibody for 24 hours at 4° C. to prevent internalization. Palivizumab (anti-RSV antibody, v22277) was included as a negative control. […] Following incubation, cells were washed and stained with anti-Human IgG Fc AF647 conjugate (Jackson Immuno Research Labs, West Grove, PA; Cat. No. 109-605-098) at 4° C. for 30 min. Following incubation and washing, fluorescence was detected by flow cytometry on a BD LSRFortessa™ Cell Analyzer (BD Biosciences, Franklin Lake, NJ) with 1,000 minimum events collected per well. The AF647/APC-A GeoMean (fluorescence signal geometric mean, proportional to anti-Human AF647 binding) was calculated for the live cell population using FlowJo™ Version 10.8.1 (BD Biosciences, Franklin Lake, NJ) and plotted for each test antibody using GraphPad Prism Version 9 (GraphPad Software, San Diego, CA).

OVCAR-3 cells = experiment: In vitro cytotoxicity, 2D monolayer, CellTiter-Glo, OVCAR-3; type: cell-based, human; details: OVCAR-3, 4 days; IC = Incomplete Curve
Method: (§4) The cytotoxicity as measured by cell growth inhibition of the humanized variant v29456 (H1L2) conjugated to various drug-linkers were assessed in a panel of NaPi2b-expressing cell lines as described below. Cell lines used were OVCAR-3 (ovarian carcinoma), IGROV-1 (ovarian carcinoma), and HCC-78 (lung carcinoma). ADCs with antibody palivizumab (anti-RSV) (v22277) were used as non-targeted controls.
(§5) OVCAR-3 were cultured in RPMI 1640 Medium, ATCC modification (Thermo Fisher Scientific, Waltham, MA) supplemented with 20% fetal bovine serum (FBS) (Thermo Fisher Scientific, Waltham, MA) and 0.01 μg/mL human insulin (Sigma-Aldrich, Oakville, ON). […] After incubation, CellTiter-Glo® reagent (Promega Corporation, Madison, WI) was added in all wells and luminescence corresponding to ATP present in each well was measured using a Synergy™H1 plate reader (BioTek Instruments, Winooski, VT). Percent cytotoxicity values were calculated by the following formula: (1−(Luminescence of Treated Cells/Average Luminescence of Untreated Cells))×100, and plotted against test article concentration using GraphPad Prism 9 software (GraphPad Software, San Diego, CA). EC50 values were calculated based on a non-linear regression log(agonist) versus response, variable slope (four parameters) by GraphPad Prism 9.

IGROV-1 cells = experiment: In vitro cytotoxicity, 2D monolayer, CellTiter-Glo, IGROV-1; type: cell-based, human; details: IGROV-1, 4 days
Method: as §4, §5

HCC-78 cells = experiment: In vitro cytotoxicity, 2D monolayer, CellTiter-Glo, HCC-78; type: cell-based, human; details: HCC-78, 4 days
Method: as §4, §5

B1: v29452: humanized anti-NaPi2b IgG1/kappa antibody H1L3; VH SEQ ID NO:24, VL SEQ ID NO:30 (antibody, V domains shown)
VH: QVQLVQSGAEVKKPGASVKVSCKASGFTFTSYNVHWVRQAPGQGLEWMGAISPGNGDLSYAQKFQGRVTMTRDTSTSTVYMELSSLRSEDTAVYYCARGRTGMGAVDYWGQGTLVTVSS
VL: DVQMTQSPSSLSASVGDRVTITCRASQDVYSYLNWYQQKPGKAVKLLIYYTSRLQSGVPSRFSGSGSGTDYTLTISSLQPEDIATYYCQQYNIFPWTFGQGTKLEIK
modifications: v29452, v29456, v29460 VH (H1); v29449, v29450, v29451, v29452 VL (L3)
Fab Tm [1]: 79.5 °C | cIEF pI [2]: 8.53 | NS-ELISA binding score (ratio of signal between antibody-treated and untreated), ssDNA (ssDNA): 1.22 | NS-ELISA binding score (ratio of signal between antibody-treated and untreated), Insulin (Insulin): 1.03 | NS-ELISA binding score (ratio of signal between antibody-treated and untreated), dsDNA (dsDNA): 1.0 | NS-ELISA binding score (ratio of signal between antibody-treated and untreated), Heparin [3]: 1.05 | Bmax (MFI) [4]: 47,763 MFI | Curve Hill Slope (h) [4]: 0.9

B2: v18993-DL2 (conjugate, chains of the INN, looked up)
VH: EVQLVESGGGLVQPGGSLRLSCAASGFSFSDFAMSWVRQAPGKGLEWVATIGRVAFHTYYPDSMKGRFTISRDNSKNTLYLQMNSLRAEDTAVYYCARHRGFDVGHFDFWGQGTLVTVSS
VL: DIQMTQSPSSLSASVGDRVTITCRSSETLVHSSGNTYLEWYQQKPGKAPKLLIYRVSNRFSGVPSRFSGSGSGTDFTLTISSLQPEDFATYYCFQGSFNPLTFGQGTKVEIK
modifications: drug-linker DL2
Bmax (MFI) [4]: 39,758 MFI | Curve Hill Slope (h) [4]: 1.1 | Kd ([4]; apparent Kd): 3 nM | EC50 (OVCAR-3 cells): 0.49 nM | EC50 (IGROV-1 cells): 2.12 nM | EC50 (HCC-78 cells): 1.77 nM

B3: v18993-DL1 (conjugate, chains of the INN, looked up)
VH: B2 VH
VL: B2 VL
modifications: drug-linker DL1
EC50 (IGROV-1 cells): 3.45 nM | EC50 (HCC-78 cells): 5.45 nM
